Substitutions are numbered along the chain they refer to. Where “and” joins values, the source holds several entries; their conditions need not be identical. Equal values may be shown once.
B1: S2X259 variant antibody, VH SEQ ID NO 459 / VL SEQ ID NO 445 (antibody, V domains shown)
VH: QVQLVQSGAEVKKPGSSVKVSCKASGGIFNTYTISWVRQAPGQGLEWMGRIILMSGKANYAQKIQGRVTITADKSTSTAYMELTSLRSDDTAVYYCARGFNGNYYGWGDDDAFDIWGQGTLVTVSS
VL: QTVLTQPPSVSGAPGQRVTISCTGSNSNIGAGYDVHWYQQLPGTAPKLLIVGNSNRPSGVPDRFSGSKSGTSASLAITGLQAEDEADYYCQSYDSSLSGPNWVFGGGTKLTVL
B2: S2X259 variant antibody, VH SEQ ID NO 460 / VL SEQ ID NO 445 (antibody, V domains shown)
VH: B1 VH with M54I, K57I
VL: B1 VL
B3: S2X259 variant antibody, VH SEQ ID NO 408 / VL SEQ ID NO 445 (antibody, V domains shown)
VH: B1 VH with K57M, W116S, S125Y
VL: B1 VL
B4: S2X259 variant antibody, VH SEQ ID NO 458 / VL SEQ ID NO 445 (antibody, V domains shown)
VH: B1 VH with K57M
VL: B1 VL
B5: S2X259 variant antibody, VH SEQ ID NO 408 / VL SEQ ID NO 442 (antibody, V domains shown)
VH: B1 VH with K57M, W116S, S125Y
VL: B1 VL with V51S
B6: S2X259 variant antibody, VH SEQ ID NO 408 / VL SEQ ID NO 444 (antibody, V domains shown)
VH: B1 VH with K57M, W116S, S125Y
VL: B1 VL with V51Y
B7: S2X259 variant antibody, VH SEQ ID NO 448 / VL SEQ ID NO 412 (antibody, V domains shown)
VH: B1 VH with N30S, K57M, W116S, S125Y
VL: B1 VL with V51C
B8: S2X259 variant antibody, VH SEQ ID NO 446 / VL SEQ ID NO 412 (antibody, V domains shown)
VH: B1 VH with M54I, K57I, W116S, S125Y
VL: B1 VL with V51C
B9: S2X259 variant antibody, VH SEQ ID NO 408 / VL SEQ ID NO 443 (antibody, V domains shown)
VH: B1 VH with K57M, W116S, S125Y
VL: B1 VL with V51A
B10: 407_10_1_v2 (antibody, V domains shown)
VH: B1 VH with K57M, S125Y
VL: B1 VL with V51C

Target: T1, SARS-CoV-2 RBD (residues 331-550 of spike from BetaCoV/Wuhan-Hu-1/2019, accession number MN908947) (SARS-CoV-2 Wuhan-Hu-1, UniProt P0DTC2 331-550)
Assay: BLI

**Q.** B1 was tested. Which Kd did it give?
**A.** 0.108 nM

**Q.** And the koff?
**A.** 6.46e-05 s⁻¹

**Q.** What about the kon of the same binder?
**A.** 601000 M⁻¹ s⁻¹

**Q.** Which results are given for B2?
**A.** Kd: 0.298 nM; koff: 0.000177 s⁻¹; kon: 595000 M⁻¹ s⁻¹

**Q.** How did the Kd turn out when B3 was run?
**A.** 0.0314 nM

**Q.** And the koff?
**A.** 2.08e-05 s⁻¹

**Q.** What about the kon of the same binder?
**A.** 661000 M⁻¹ s⁻¹

**Q.** B4 was tested. Which Kd did it give?
**A.** 0.0836 nM

**Q.** And the koff?
**A.** 5.03e-05 s⁻¹

**Q.** What about the kon of the same binder?
**A.** 601000 M⁻¹ s⁻¹

Target: SARS-CoV-2 mutant RBD N439K (SARS-CoV-2, UniProt P0DTC2 328-531)
Assay: ELISA

**Q.** With B1 as the binder, how does the IC50 read?
**A.** ≥ 0.05 µg/mL and ≤ 0.1 µg/mL

**Q.** For B4, which IC50 is on record?
**A.** ≥ 0.05 µg/mL and ≤ 0.1 µg/mL

Target: T1, SARS-CoV-2 RBD (residues 331-550 of …)
Assay: ELISA

**Q.** With B1 as the binder, how does the IC50 read?
**A.** ≥ 0.05 µg/mL and ≤ 0.1 µg/mL

**Q.** B2 was tested. Which IC50 did it give?
**A.** ≥ 0.05 µg/mL and ≤ 0.1 µg/mL

**Q.** Which IC50 does the source give for B4 here?
**A.** ≥ 0.05 µg/mL and ≤ 0.1 µg/mL

Target: T1, SARS-CoV-2 RBD (residues 331-550 of …)
Assay: BLI
Remark: another data set of the same source

**Q.** Which Kd does the source give for B3 here?
**A.** 0.0764 nM

**Q.** For B5, which Kd is on record?
**A.** 0.0605 nM

**Q.** Which Kd does the source give for B6 here?
**A.** 0.0642 nM

**Q.** B7 was tested. Which Kd did it give?
**A.** 0.584 nM

**Q.** For B8, which Kd is on record?
**A.** 0.572 nM

**Q.** How did the Kd turn out when B9 was run?
**A.** 0.0828 nM

Target: T1, SARS-CoV-2 RBD (residues 331-550 of …)
Assay: not given

**Q.** B10 was tested. Which “EC50 (read off the curve)” value did it give?
**A.** ~5 µg/mL

Target: T2, SARS-CoV-2 Spike protein (SARS-CoV-2 Wuhan-Hu-1, UniProt P0DTC2 14-1273)
Assay: cell-based or functional assay

**Q.** B3 was tested. Which “neutralization IC50” value did it give?
**A.** < 0.1 µg/mL

**Q.** How did the “neutralization IC50” value turn out when B9 was run?
**A.** < 0.1 µg/mL

Target: T2, SARS-CoV-2 Spike protein
Assay: cell-based or functional assay
Remark: another data set of the same source

**Q.** Which “neutralization IC50” value does the source give for B3 here?
**A.** 0.19 µg/mL

**Q.** For B5, which “neutralization IC50” value is on record?
**A.** 0.19 µg/mL

**Q.** Which “neutralization IC50” value does the source give for B6 here?
**A.** 0.167 µg/mL

**Q.** B7 was tested. Which “neutralization IC50” value did it give?
**A.** 0.0134 µg/mL

**Q.** How did the “neutralization IC50” value turn out when B8 was run?
**A.** 0.321 µg/mL

**Q.** How did the “neutralization IC50” value turn out when B9 was run?
**A.** 0.0975 µg/mL

From patent publication US20240059757A1 (VIR BIOTECHNOLOGY, published 2024)
